From US20110189190A1 (Eli Lilly, published 2011) come the findings set out here.

Assay [1] concerns the target T1, human hepcidin-20 (human).
T1 construct: Endogenous serum form (MW 2192 Da) in the MALDI-TOF experiments
T1 peptide: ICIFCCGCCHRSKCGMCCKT
Briefly: immunoprecipitation from human serum on plate-coated antibody, acid elution, MALDI-TOF mass spectrometry (linear mode). An excerpt: (§1) Signal 1 has a mass which is consistent with the expected mass of intact human hepcidin-25 (approximate molecular weight (MW) of 2790 Daltons (Da)). Signal 2 has a mass which is consistent with the expected mass of intact human hepcidin-20 (MW of 2192 Da). […] The mass spectrum was generated on a MALDI-TOF mass spectrometer utilizing a positive ion, linear mode method with a-cyano-4-hydroxycinnamic acid (peptide matrix) as sample matrix essentially as described in Example 6 below.
(§2) Anti-human hepcidin Mabs or Fabs are coated onto separate wells of a 96-well standard ELISA plate in carbonate-bicarbonate (pH 9.4) buffer for 1 hour at room temperature at a concentration of 2 mg/L. The wells are then aspirated and washed 3 times with TBST. Human serum samples containing a known amount of hepcidin-25 (diluted in assay buffer) is added at 100 μl/well for one hour at room temperature. The wells are aspirated and washed 3 times with TBST. Captured hepcidin polypeptides are eluted by adding 40 μL/well of 0.1% formic acid for 5 minutes at room temperature. […] The sample is dried and analyzed with a 4700 TOF-TOF Mass Spectrometer (Applied Biosystems) operated in the linear mode.

Assay [2] addresses T2, human hepcidin-25 (human).
T2 construct: also called mature human hepcidin; human hepcidin-25 control peptide
T2 peptide: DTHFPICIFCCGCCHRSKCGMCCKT
The assay is described as above.
Excerpt: as §1, §2

Assay [3] addresses T2, human hepcidin-25. In words: SPR, Mab immobilized on CM4 chip. As to the method: The flow cells were then injected with human hepcidin-25. Next, the flow cells were injected with Mab 5E8.
A general note: In SPR one partner is held on a chip, and binding of the other changes the refractive index at the surface.

For assay [4], the target named is T2, human hepcidin-25. Briefly: SPR.
Assay [5] has as its target T3, rat hepcidin-25 (rat).
T3 peptide: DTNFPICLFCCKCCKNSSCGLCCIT
In words: SPR, 25 C.

Assay [6] concerns the target T4, mouse hepcidin-25 (mouse).
T4 peptide: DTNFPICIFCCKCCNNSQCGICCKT
Briefly: SPR, 25 C.

The target of assay [7] is T5, human hepcidin-22 (human).
T5 construct: Endogenous serum form (MW 2436 Da) in the MALDI-TOF experiments
T5 peptide: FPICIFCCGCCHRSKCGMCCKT
In words: SPR, 25 C.

The target of assay [8] is T1, human hepcidin-20. In words: SPR, 25 C, Mab captured.
In assay [9] the target is T2, human hepcidin-25. In words: SPR, Mab captured by anti-mouse IgG1 Fc. The procedure: Briefly, on a Biacore® T100, goat anti-mouse IgG1 Fc polyclonal antibody was immobilized onto flow cell 1 to 4 of CMS chip at 5000-15000 response units (Ru). Mab 5E8 was captured on flow cell 2, Mab 4C11 was captured on flow cell 3, and Mab 3A9 was captured on flow cell 4. Flow cell 1 was used as a reference flow cell. All flow cells were then injected with human hepcidin-25.

Assay [10] has as its target T2, human hepcidin-25. Briefly: SPR, 25 C, Mab captured, hepcidin-25 injected. As to the method: A SPR biosensor such as the BlAcore® T100 may be used to measure binding kinetics and affinity of antibodies such as the antibodies disclosed herein. The BIAcore® system utilizes the optical properties of SPR to detect alteration in protein concentration of interacting molecules within a dextran biosensor matrix. Except as noted, all reagents and materials are purchased from BIAcore® AB (Upsala, Sweden). All measurements are performed at 25° C. Samples are dissolved in HBS-EP buffer (150 mM sodium chloride, 3 mM EDTA, 0.05% (w/v) surfactant P-20, and 10 mM HEPES, pH 7.4). To capture Fabs with human kappa, goat-anti-human kappa is immobilized on flow cells 1 to 4 of a CMS sensor chip at a level of 5000-10000 response units (Rus) using an amine coupling kit. To capture Mabs with mouse IgG1, goat-anti-mouse Fc gamma is immobilized on flow cells 1 to 4 of a CMS sensor chip at a level of 5000-10000 Rus using an amine coupling kit. […] Fabs prepared from E. coli periplasma and Mabs prepared from mammalian cell culture are evaluated using multiple analytical cycles. […] The measurements are obtained at 25° C. and the association and dissociation rates for each cycle are evaluated using a “1:1 with mass transfer” binding model in the BIAevaluation software.

For assay [11], the target named is T1, human hepcidin-20. In words: MSD sandwich immunoassay: Mab OH4 capture, ruthenium-labelled Mab 3.23 detection; no sandwich signal (assigned to the capture antibody OH4). As to the method: (§3) Streptavidin-coated and blocked wells of an ELISA plate were incubated for 1 hour with biotinylated Mab OH4 at a concentration of 2 mg/L. Afterward, wells were aspirated and washed three times with TBST (Tris buffered saline containing 10 mmol/L Tris pH 7.40, 150 mmol/L NaCl with 1 mL Tween 20/L). Next, 100 μL of hepcidin standards (varying concentrations of synthesized hepcidin-25 protein in assay buffer consisting of 50 mmol/L HEPES, pH 7.40, 150 mmol/L NaCl, 10 mL/L Triton X-100, 5 mmol/L EDTA, and 5 mmol/L EGTA) were added to the wells to generate a calibration curve. At the same time, serum samples were diluted 1:20 in assay buffer and added to their respective wells, and the ELISA plate was allowed to incubate for 1 hour at room temperature. […] Following aspiration, wells were washed three times with TBST, and the ELISA plate was developed using a MSD reader, which passed a voltage across the wells and recorded ruthenium electrochemiluminescence from each well. MSD software and SigmaPlot version 8.0 were used for fitting of the calibration curves for the ELISA.
(§4) Synthesized hepcidin-25 protein was prepared at a concentration of 10 μg/L and serially diluted to create a standard curve.

The target of assay [12] is T5, human hepcidin-22. The description is as above. As to the method:
as §3, §4

The target in assay [13] is T2, human hepcidin-25. In words: SPR, 25 C.
For assay [14], the target named is T2, human hepcidin-25. Briefly: immunoprecipitation from human serum on plate-coated antibody, acid elution, MALDI-TOF mass spectrometry (linear mode). An excerpt:
FIG. 3 depicts a MALDI-TOF mass spectrum of the forms of human hepcidin immunoprecipitated from human sera with the anti-hepcidin-25 selective Mab 5E8. Signal 1 has a mass which is consistent with the expected mass of intact human hepcidin-25 (2790 Da). […] The mass spectrum was generated on a MALDI-TOF mass spectrometer utilizing a positive ion, linear mode method with a-cyano-4-hydroxycinnamic acid (peptide matrix) as sample matrix essentially as described in Example 6 below.
Anti-human hepcidin Mabs or Fabs are coated onto separate wells of a 96-well standard ELISA plate in carbonate-bicarbonate (pH 9.4) buffer for 1 hour at room temperature at a concentration of 2 mg/L. The wells are then aspirated and washed 3 times with TBST. Human serum samples containing a known amount of hepcidin-25 (diluted in assay buffer) is added at 100 μl/well for one hour at room temperature. The wells are aspirated and washed 3 times with TBST. […] The sample is dried and analyzed with a 4700 TOF-TOF Mass Spectrometer (Applied Biosystems) operated in the linear mode.
(§5) Similar experiments were performed using MALDI-TOF spectrometry to determine which hepcidin species in human serum are bound by Mab 5E8. These experiments determined that Mab 5E8 bound only hepcidin-25 in human serum (FIGS. 3 and 4). […]

Assay [15] concerns the target T3, rat hepcidin-25. Briefly: SPR, 25 C, Mab captured.
Assay [16] has as its target T4, mouse hepcidin-25. In words: SPR, 25 C, Mab captured.
Assay [17] concerns the target T1, human hepcidin-20. In words: immunoprecipitation from human serum, MALDI-TOF mass spectrometry. The procedure: Anti-human hepcidin Mabs or Fabs are coated onto separate wells of a 96-well standard ELISA plate in carbonate-bicarbonate (pH 9.4) buffer for 1 hour at room temperature at a concentration of 2 mg/L. The wells are then aspirated and washed 3 times with TBST. Human serum samples containing a known amount of hepcidin-25 (diluted in assay buffer) is added at 100 μl/well for one hour at room temperature. The wells are aspirated and washed 3 times with TBST. Captured hepcidin polypeptides are eluted by adding 40 μL/well of 0.1% formic acid for 5 minutes at room temperature. The eluted samples are collected and concentrated with a C4 ZipTip™ (Millipore, Billerica, Mass.), a 10 μL pipette tip with a bed of chromatography media for purifying and concentrating femtomoles to picomoles of protein or peptides, ideally ranging from 25,000 MW to 100,000 MW. […] The sample is dried and analyzed with a 4700 TOF-TOF Mass Spectrometer (Applied Biosystems) operated in the linear mode.
as §5

B1: Anti-hepcidin Mab 3.23 (antibody, human IgG4 S228P, kappa, V domains shown)
VH: QVQLVQSGAEVKKPGSSVKVSCKASGYTFLIYPISWVRQAPGQGLEWMGNFHPYLGVTNYVEKFKGRVTITADKSTSTAYMELSSLRSEDTAVYYCARGGTGSFDYWGQGTTVTVSS
VL: DIQMTQSPSSLSASVGDRVTITCSASSRVSSTYLFWYQQKPGKAPKLLIYRTSPLASGVPSRFSGSGSGTDFTLTISSLQPEDFATYYCQQWSGYPFVFGGGTKVEIKR
B1: the binding result in the assay with human hepcidin-20 [1] and with human hepcidin-25 [2] was “binds” each time.

B2: Anti-hepcidin Mab 3.12 (antibody, human IgG4 S228P, kappa, V domains shown)
VH: QVQLVQSGAEVKKPGSSVKVSCKASGYTFLIYPISWVRQAPGQGLEWMGNFHPYLGVTNYLEKFKGRVTITADKSTSTAYMELSSLRSEDTAVYYCARGGTGSFDYWGQGTTVTVSS
VL: DIQMTQSPSSLSASVGDRVTITCSASSRVSSTYLFWYQQKPGKAPKLLIYRTSTLTSGVPSRFSGSGSGTDFTLTISSLQPEDFATYYCQQWSGYPFVFGGGTKVEIKR
As to B2, in the assay with human hepcidin-25 [3], the binding result is “binds”.

B3: mouse monoclonal antibody 3A9 (antibody, mouse IgG1, kappa, V domains shown)
VH: EVKLVESGPGILQPSQTLSLTCSFSGFSLNSYGFGIGWIRQPSGKGLEWLTHIWWNGNKYYNTTLKSRLTISKDTSNNQVFLKIASLDTADTATYYCALIHYYGNSYGFAYWGQGTLVTVSA
VL: DIQMNQSPALMSASPGEKVTMTCSASSSVSSMYWYQQKPRSSPKPWIYLTSNLASGVPPRFSGSGSGTSYSLTISNMEAEDAATYYCQQWSSYPPTFGGGTKLEIKR
notes: also called Mab 3A9
On to B3, for which, in the assay with human hepcidin-25 [4], the binding result is reported as “binds”.

B4: mouse monoclonal antibody 4C11 (antibody, mouse IgG1, kappa, V domains shown)
VH: QVQLKQSGPGILQPSQTLSLTCSFSGFSLSTYGIGVGWIRQPAGKGLEWLAHIWWNDNKSYNTALKSRLTISKDTSNNQVFLKIASVDTTHTATYYCVVIGYYGSTSGFAYWGQGTLVTVSA
VL: QILLTQSPALMSASPGEKVTMTCSASSSVSYMYWYQQKPRSSPKPWIYLTSNLASGVPARFSGSGSGTSYSLTISSMEAEDAATYYCQQWSSNPPTFGGGTKLEIKR
notes: also called Mab 4C11
For B4, the binding result is reported as “binds” in the assay with rat hepcidin-25 [5], “binds” with mouse hepcidin-25 [6], “no binding” in the assay with human hepcidin-20 [8] and “binds” with human hepcidin-25 [9]. This molecule displayed a Kd with human hepcidin-22 [7] of about 0.209 µM.

B5: mouse monoclonal antibody OH4 (antibody, mouse IgG1, kappa, V domains shown)
VH: EVKLVESGGGLVKPGGSLKISCAASGFAFSSYDMSWVRQTPEKRLEWVATIISGGTYTYYPDSVKGRFTISRDNARNTLNLQMSSLRAEDTALYYCADDGYIHWGQGTLVTVSA
VL: DIVMTQIPLTLSVTIGQPASISCKSSQSLLYPNGKTYLTWLLQRPGQSPKRLIYLVSKLDPGVPDRFTGSGSGADFTLKISRVEAEDLGIYYCIQGSHFPWTFGGGTKLELKR
notes: also called Mab OH4
B5 returned a Kd with human hepcidin-25 [10] of about 0.0012 µM. The binding result with human hepcidin-20 [11] and in the assay with human hepcidin-22 [12] was “no binding (tested: 10 ug/L)” in each case.

B6: mouse monoclonal antibody OB3 (antibody, mouse IgG1, kappa, V domains shown)
VH: EVKLVESGGGLVKPGGSLKISCAASGFAFSSYDMSWVRQTPEKRLEWVATIISGGTYTYYPDSVKGRFTISRDNARNTLNLQMSSLRAEDTALYYCADDGYIHWGQGTLVTVSA
VL: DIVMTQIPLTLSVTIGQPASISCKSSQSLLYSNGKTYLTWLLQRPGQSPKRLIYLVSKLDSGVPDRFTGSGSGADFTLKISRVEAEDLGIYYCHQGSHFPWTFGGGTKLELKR
On to B6, for which the binding result with human hepcidin-25 [13] is “binds”.

B7: mouse monoclonal antibody 5E8 (antibody, mouse IgG1, kappa, V domains shown)
VH: EVKLVESGGGLVKPGGSLKISCAASGFAFSSYDMSWVRQTPEKRLEWVATIISGGTYTYYPDSVKGRFTISRDNARNTLNLQMSSLRAEDTALYYCADDGYIHWGQGTLVTVSA
VL: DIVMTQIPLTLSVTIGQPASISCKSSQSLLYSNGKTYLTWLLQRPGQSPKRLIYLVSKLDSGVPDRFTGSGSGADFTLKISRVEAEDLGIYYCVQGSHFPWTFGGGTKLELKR
notes: also called Mab 5E8
B7: the binding result with human hepcidin-25 [14] is on record as “binds”; with rat hepcidin-25 [15], “no binding”; with mouse hepcidin-25 [16] it was “no binding”; in the assay with human hepcidin-20 [17], “no binding”.

B8: mouse monoclonal antibody OE1 (antibody, mouse IgG1, kappa, V domains shown)
VH: EVKLVESGGGLVKPGGSLKISCAASGFAFSSYDMSWVRQTPEKRLEWVATIISGGTYTYYPDSVKGRFTISRDNARNTLNLQMSSLRAEDTALYYCADDGYIHWGQGTLVTVSA
VL: DIVMTQIPLTLSVTIGQPASISCKSSQSLLYPNGKTYLTWLLQRPGQSPKRLIYLVSKLDPGVPDRFTGSGSGADFTLKISRVEAEDLGIYYCFQGSHFPWVFGGGTKLELKR
notes: also called 0E1
B8: in the assay with human hepcidin-25 [13], the binding result is on record as “binds”.

B9: mouse monoclonal antibody OB1 (antibody, mouse IgG1, kappa, V domains shown)
VH: EVKLVESGGGLVKPGGSLKISCAASGFAFSSYDMSWVRQTPEKRLEWVATIISGGTYTYYPDSVKGRFTISRDNARNTLNLQMSSLRAEDTALYYCADDGYIHWGQGTLVTVSA
VL: DIVMTQIPLTLSVTIGQPASISCKSSQSLLYRNGKTYLTWLLQRPGQSPKRLIYLVSKLDPGVPDRFTGSGSGADFTLKISRVEAEDLGIYYCHQGSHFPWTFGGGTKLELKR
For B9, in the assay with human hepcidin-25 [13], the binding result is recorded as “binds”.

Usually Kd stands for a measure of binding affinity in units of concentration. A high value points to a looser complex.
